The values below come from the DeepSol protein solubility set.

The data set in a line: soluble on expression in E. coli; label from the status in PepcDB or PDB records.
Consider “MGSVAARDYVGIATKYAEAAVADKGRKRHGRWIRLAAKRFLDDLKRARRRGTPFFFDEWHANDACDFIEKLPHVEGKWETPTIVMHPSHVFFVVQLFGFRRRDAIKVEGWGDDDTFHPRRFTSALFAVARKNAKSTLASAILLYCLCCEPEEGAQVISAATTFDQASIIFRASKRMVEKTPDLAEAFGLATWAKSISRFETGSSYKAVHAKASTQDGLNPSHTGLDEIHAHKTADLLNVLQSAAGARANPLWLFTTTEGYTNAGPWAEIRGFVFALLRGVLGTQADHFLALFYALDNEDKSAKITQDDEFDESKWIKANPLLDVNPHLKAAIRKEAVEAKQMPSKLAEFRIKRCNRPASTASGWVDLTKWAKCGGAVDLDWLAGYPCWGGLDLASTTDIAAFRLLWLVEGVWYTHGWRWVPSEAVKQRTERATVPYAGWVEAGYLLQTEGDVTDYSVIERDILAAVQRFDPQQIAYDAWNAADLVNRLVAASVPMVQFVQGTKSYHPAMQALELAYVGGKLVHGGDPVLAWCASNLVARRDVNLSMAPDRKRSADKIDDMAALLMAMGLAVASDDAEDLSDFFNNAVIGLEHHHHHH”, for which the “soluble on expression in E. coli” value is “soluble”.
On to “MGSDKIHHHHHHMSDIIQFPNSSKKLYKDIKRAEQDQNYDLMYEYIVQYERQFELTEEIAMMKCRMLYETGSFLELREETIVLLKTGIQQYDALMIYYVKSLIGLGQYFEAVEVIHQIIDEVKDHKTRMALHPLKEFAKSKLIEDEKRLTQSLTDFDTLSMREQTHLILKLIDNGHFQFQETVLYILKSNTYSYNLISLMIEYLRFANCTQELTIEKYGMDVTFVPANLNGLEHTTLKEKVIPNVMETLNDGALHIAEEAHHIMNNHSIMIYPIDIETLFETNKWINAYECYFKNMLGLKCELQSIDAFNFIQQLDLNNNS”, for which the “soluble on expression in E. coli” value is recorded as “not soluble”.
On to “SLRSIMTPRGEISWVDAEQSEDEIRRQLLSSPHSLFPVCRGELDEIIGIVRAKEMLVALESGENVAALASASPAIVVPETLDPINLLGVLRRARGSFVIVTNEFGVVQGLVTPLDVLEAIAGEFPDADETPEIVIDGDGWLIKGSTDLHALQQALGLDPLINDDEDIATVAGLVISANGHIPRIGDVVSLPPLHFTVVEANDYRV”, for which the “soluble on expression in E. coli” value was “soluble”.
On to “MAVNLNPPQAGQLPAVAGVELLVAEAGIKTPGRKDVLVVKLDKGNTVAGVFTRNRFCAAPVQLCQEHLAAGVQIRALVVNTGNANAGTGFDGRARALSVCRAVAERDQLQTEQVLPFSTGVILEPLPADKIVAALPALRQADWAEAAEAIMTTDTLAKAASRRLDIGGKAVTVTGIAKGSGMIHPNMATMLGFVATDAAVTRPMLNQLVREVADQSFNSITVDGDTSTNDSFILISTGQSGAELIDSAEQPAYQQLKQALLEVAIELAQAIVRDGEGATKFITVDVNGGRSVAECKDVAYAIARSPLVKTAFFASDPNLGRLLAAIGYAGVADLDVDRLSLYLDDVLVACEGGRNPAYKEAQGQAVMNQSEITVRVELGRGSASARVWTCDFSYEYVRINADYRSLEHHHHHH”, for which the “soluble on expression in E. coli” value is given as “not soluble”.
On to “MGHHHHHHSHRSQPVHILAVRRLQEEDQQFRTSSLPAIPNPFPELCGPGSPPVLTPGSLPPSQAAAKQDVKVFSEDGTSKVVEILADMTARDLCQLLVYKSHCVDDNSWTLVEHHPHLGLERCLEDHELVVQVESTMASESKFLFRKNYAKYEFF”, for which the “soluble on expression in E. coli” value was “not soluble”.
For “MISVVIPAKDEVGNIGPLMKEICQALQGVTEFEILVVDDGSQDDTFGEVIHTAELMLCNAKAIRHERSTGQSTAISTGVLHARGQYIVTLDADGQNDPADIPAMLAQLPQIHAEHFCIAGYRKNRKDTAWKRFQSRFANKVRDALLHDGVPDTGCGLKLFPRETFLRMPYFDHMHRYIPALVRRMGGEVFISVVNHRDRQLGVSKYTAWNRVWVGIVDIMGVIWLGRRAKIAKVARSETRWHDLEHHHHHH”, the “soluble on expression in E. coli” value was “soluble”.
As to “MANSAGSMAPKVFYISDGTAITAEVFGHAVLSQFPLEFESLTIPFVETLAKAENVKRQINDCFITTGERPLVFHSIVKPEIRDIIYSSEGLDYDFLNTFVAPLEQHLGVSASPVLHRTHGKANQGYEARIDAINFAMDNDDGQTMKHMDQADLILLGVSRCGKTPSSLYLSMQFGIKAANYPFTEDDMDNLKLPEALKRNKKKLFGLTIDPVRLHEIRQSRMENSRYSSLKQCRLEVKEVEMMFKRERIPYIDTTNHSVEEIATKILDVTGLERHMFLEHHHHHH”, the “soluble on expression in E. coli” value was “not soluble”.
As for “MSLDTFGLIQLAELIYEYCGIDFFKNLSSLESKISERLKELGLSCWEYGGYLRVEPKEWDTLIDLITVNETYFFREENLLEEFQKVILPKYKDRTPNNPLRIWSSACSSGEEPYTLAILSEETGLFETGAVEIIASDIDKKVLEKARRGLYNKKSFSFRTMPKEILDKYFISFGDDYKVKDSIRAMVDFRRVNLLDENKLEKVGEVDIVFCRNVLIYFDTKAINKVINSLYKVLRAGGYLFLGHAETITGMNTGFETIYTPSAFYYRKGERHEGHHHHHH”, the “soluble on expression in E. coli” value is listed as “soluble”.
Consider “MAHHHHHHMRRVVASRKAICEYRLYSQVSPQGYPVTAVTPQQIRRVPFYRHRKLYDLTTRELSEEAIRDFLPPKPAVPAGWSMEHKIGSCRFDLTKTMGADDSAREDLHVVALMEPKKYEQTYRMDNGERNGEEYLVFNLFIKKHQHSGGVEFGLTSIDMELVMDSLVVHSTDREMDYSIGALGPGKTTSVGTSFGQKLNIECRRCRDYRYRGPMLNELDDDLTDEILDYLDERGVNNGFAEYMMAQAHFLEQEEYLNWLRLLKQFAT”, for which the “soluble on expression in E. coli” value is listed as “not soluble”.
For the sequence “MDPRGTKRGAEKTEVAEPRNKLPRPAPSLPTDPALYSGPFPFYRRPSELGCFSLDAQRQYHGDARALRYYSPPPTNGPGPNFDLRDGYPDRYQPRDEEVQERLDHLLCWLLEHRGRLEGGPGWLAEAIVTWRGHLTKLLTTPYERQEGWQLAASRFQGTLYLSEVETPNARAQRLARPPLLRELMYMGYKFEQYMCAGELPLLHSPLPLPRG”, the “soluble on expression in E. coli” value is listed as “not soluble”.
With “GPGSMSALWAQVRQTVESEWDKTIVPAISAYIEVPNQSPQFDPEWATNGLQEKAFGILIDWMNAQNVQGLTYDYITADGRTPFLLVEIAGTEPTNNTVLMYGHMDKQPPLRPWAEGLDPHKAVVRDGKLYGRGGADDGYALFAAVTAISSLQRHGIPHGRVVITIEAGEESGSPDLDYYMERCKERIGKVDLMVCLDSGSMNYSQVWLTTSLRGVAIGELTVQTLTESMHSGVAGGVVPDTFRITRELLSRIEDCKTGEVTIPEAHCEIPPNAVKAAEAMKTVPFKEQFAMAAGVATVPGDNVELAIQNFWKPSLTVTGANLPDPQIAGNVIRTHTTVKLSMRLPPLVKAEAALQAMKRILEADPPYGAKVAFKGVGAGNGCAAPELKPWLQEVLHEGSTEAFGNTYACQGMGGAIPFIGMLIDMYPEAQFVVTGLLGPQSNAHGPNEFLHIPYAKGLTYSIARVVAAHLHNTPK”, the “soluble on expression in E. coli” value is “soluble”.
“MSTPSLYEMLTFSFSGELPLEQISERDQLILSVMDNMQRIINCRAGTLAHLPDYGLPDLSLIHQGMAAGIHGLMRQIEETLLRYEPRLSQIQVELLPQPRPGHLNYLIHAQLPDTGWIRFDGVFSPEGRIVLRHLKQQERAY”: the “soluble on expression in E. coli” value was “not soluble”.
In the case of “MSLKITNEMQTKAETKIHRTTKVGDPSFQQMVQSQTKQLNQQQFHQLVQQISKQGSKLAQYRSFRELVKFKRMVKSFLDKAVVQGYKLEKSHSFGLQGSRHLSIVKAVDEKLIQLAEDIMDEEKKTVDILGLIGEIKGLLINIYTEGHHHHHH” it was “soluble”.
Consider “SGGRPIQFFRRLAIWKYMKDYFPVSLVKTAELDPSRNYIAGFHPHGVLAAGAFLNLCTESTGFTSLFPGIRSYLMMLTVWFRAPFFRDYIMSGGLVSSEKVSADHILSRKGGGNLLAIIVGGAQEALDARPGAYRLLLKNRKGFIRLALMHGAALVPIFSFGENNLFNQVENTPGTWLRWIQNRLQKIMGISLPLFHGRGVFQYSFGLMPFRQPITTIVGKPIEVQMTPQPSREEVDRLHQRYIKELCKLFEEHKLKFNVPEDQHLEFC”, for which the “soluble on expression in E. coli” value is given as “soluble”.
Regarding “NPMSVLLGKAEQLNLLYDKYWDDSMRLNPLQATLQGDAYHGDRMPNFLSAEFRKQHHDFIEKWLKKVEMVGADGLDGQAFISYQIFVRDARNSLHAERYPNWMLPINQFYNIANVAVVLGSGNGAQPFNTVQDYDNWAHRSLGIPALFNQAIVNMRLGMKSGVVQPKVLMEKVIPQLDSIIKPTAEETLFWVPIRNMSVTFSKENRQRITAEYKSIIEYRLLPAYRALRNFIATEYLPVCRDSVGLSALPGGASWYAYTVRQSTTTNMTPEQIHQLGLKEVERLQAEIQSVMRQLNFNGSMQKFFSFMQNNEYFTFGSEKEMLAYYRDLRTRVEARVPALFSLVPKAGFEILPVESFRAPSAAAGSYMPPSSNRRHNGVFYANTNDLSSRRTWNAEKLFLHQGIPGYHFQLGLQQELRNLPKFRRLGGETAFIEGWGLYAESLGKELGLYQDAYNYFGYLQDALSRAIRLVVDTGLHTKGWTRAQVVDYIVENSATSPIEAEAEVDRYIAIPGQALAYKVGELKIHQLRQYAQLTLGPMFDLREFHAEILKDGSVPLDILQQKIERWIAVK”, the “soluble on expression in E. coli” value is “not soluble”.
In the case of “MTELARLKFYATQPHSCSYLPDEQATTLFLDPSQPMDVHVYADLSEMGFRRSGDHLYRPHCQNCNACVPARIPATQFLPSRQQKRIIKRNSDLTVHAAKPCFSEEYFDLYQRYIEQRHADGDMFPPSRDQFSTFLVRDLPFSRFYEFRLDGRLLAVAVTDLLPNGLSAVYTFYEPDEERRSLGRFAILWQIGETLRLGLDAVYLGYWIKNCKKMNYKTQYRPIELLVNQRWVILNLEHHHHHH” it was “not soluble”.
“MSRPPLPPFTRETATQKVRMAEDAWNSRDPARVSLAYTPDSRWRNRAEFLQGRDAIVEFLTRKWAKEHDYRLIKDLWAFDGRFIAVRFQYEWRDEAGLWYRSYGNEQWEFDDDGLMRRREASINDVAISEGDRRFHWPAPGPRPDDVPGLAADPFLEHHHHHH”: the “soluble on expression in E. coli” value is “soluble”.
On to “MGSDKIHHHHHHMSKWQSKEQLIQLLSSLVEIPSITGTEAEVILPDFVVEQLSDLQYFKENPHHLQKNPTGDGRYFVTALVKKSDRTKNTVILVSHFDVVDVQDYGVWKEDAFNPKKLTSMFYAHKDELPDHVREDIEQGEWLFGRGTMDMKCGLALQMAMIEQACEGRFDGNVLLLAVPDEEVNSVGMRAAIPRLLELAREHDLEYKTVLNSEPMFARHPGDQKKYIYTGSIGKVLPGFLCYGKETHVGEPFAGLNGSYMASLITAELELNTDLCDIVEGEASPPPTNLLQRDLKEDYSVQIPHRAVTLFNLFLLEKSMTDVVSLLRQKVTKVAEKIEEKYEKQAYRFSKYNPFIPPNMKVNVLTYEELIAYAIEQHGQEKINEIQSSIIKNREEKDDRAVTIDLVDKLAILCKEKAPMIVLFFAPPYYPAVSSRNNLLIKEVVTEMEKYANLNHNITFENQNYFGGISDLSYVGLQNPLDSMSSLVDNMPLWDKGYSIPLQELEEFDVPVLNMGPVGKDAHQWTERLDVNYAFETLLDMLPICIEKLLVSNKITQV”, for which the “soluble on expression in E. coli” value is listed as “not soluble”.
In the case of “THGWNFQVSANAAYNKNEVMDLKNGGARIWSGKYFNQEGYAINSIGGYIAEGLFKTEEEVANSATIPGTDTAPGDIKYRDINNDGKIDGEDRVYIGNTMPKWTFGLNLFAEWKGLDATFLFQGAADVQGYLAGPGVVGEMIGAKGKPSYMYRDCWDAETNPNGKFPRAFSSYRQNNSIYNPSSFWIVNSSYLRLKNFQLGYTLPKEWCNMMGISRIRVYYSGQNLLTFTKFDKGFDPESPEGGSSYPQVKTNTFGLNITF” it was “not soluble”; in that of “STRFPGVAIYLVEPRMGRSRRAFLTGLARSKGFRVLDACSSEATHVVMEETSAEEAVSWQERRMAAAPPGCTPPALLDISWLTESLGAGQPVPVECRHRLEVAGPRKGPLSPAWMPAYAC”, “soluble”.
